Patent publication US20130129767A1

Experiments:
[1] = molecular target: bovine serum albumin (bovine) (UniProt P02769); experiment: static adhesion assay, IEs on coated BSA
[2] = molecular target: decorin: CSPG (Chondroitin Sulfate Proteoglycan, Sigma) (bovine) (UniProt P21793); experiment: static adhesion assay, IEs on coated CSPG
Chain of UniProt P21793 (P21793 31-360 limits assumed): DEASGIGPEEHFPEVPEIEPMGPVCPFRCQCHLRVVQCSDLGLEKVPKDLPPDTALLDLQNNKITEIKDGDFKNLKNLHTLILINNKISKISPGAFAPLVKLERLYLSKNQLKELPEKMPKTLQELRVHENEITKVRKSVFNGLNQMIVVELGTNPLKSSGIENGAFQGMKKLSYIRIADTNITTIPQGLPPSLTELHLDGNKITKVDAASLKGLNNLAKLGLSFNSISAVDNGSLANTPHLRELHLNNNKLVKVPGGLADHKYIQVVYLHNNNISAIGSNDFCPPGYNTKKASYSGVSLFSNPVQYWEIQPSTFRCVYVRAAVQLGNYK

Chain of UniProt P02769 (P02769 25-607 limits assumed): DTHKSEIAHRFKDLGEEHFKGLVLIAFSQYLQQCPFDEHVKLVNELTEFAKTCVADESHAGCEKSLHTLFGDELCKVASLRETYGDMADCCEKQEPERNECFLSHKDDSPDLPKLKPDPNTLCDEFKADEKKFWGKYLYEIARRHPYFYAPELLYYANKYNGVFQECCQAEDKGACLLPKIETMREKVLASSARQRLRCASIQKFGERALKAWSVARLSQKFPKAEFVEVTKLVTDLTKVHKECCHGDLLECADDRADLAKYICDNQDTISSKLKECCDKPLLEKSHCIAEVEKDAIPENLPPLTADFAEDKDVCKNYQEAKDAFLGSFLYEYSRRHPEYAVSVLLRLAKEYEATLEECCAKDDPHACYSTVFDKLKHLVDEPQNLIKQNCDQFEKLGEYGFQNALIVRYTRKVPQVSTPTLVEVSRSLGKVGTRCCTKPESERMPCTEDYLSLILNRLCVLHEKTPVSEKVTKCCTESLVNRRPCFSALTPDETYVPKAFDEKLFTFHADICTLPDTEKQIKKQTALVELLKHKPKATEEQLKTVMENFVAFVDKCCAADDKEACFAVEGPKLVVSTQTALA

Row | Substance | Bound IEs/mm^2 on BSA [1] [IEs/mm^2] | Bound IEs/mm^2 on CSPG [2] [IEs/mm^2]
1 | surface of P. falciparum-infected erythrocytes of isolate WP0200 (naturally infected pregnant person, Benin) | 4.5 | 185
2 | surface of P. falciparum-infected erythrocytes of isolate CM307 (naturally infected pregnant person, Benin) | 1 | 623
3 | surface of P. falciparum-infected erythrocytes of isolate 1MH016 (naturally infected pregnant person, Benin) | 2 | 178
4 | surface of P. falciparum-infected erythrocytes of isolate 1MMCH (naturally infected pregnant person, Benin) | 2.5 | 394
5 | surface of P. falciparum-infected erythrocytes of isolate WP0161 (naturally infected pregnant person, Benin) | 1 | 1300
6 | surface of P. falciparum-infected erythrocytes of isolate CM445 (naturally infected pregnant person, Benin) | 1.5 | 218
7 | surface of P. falciparum-infected erythrocytes of isolate AK366 (naturally infected pregnant person, Benin) | 0.5 | 357
8 | surface of P. falciparum-infected erythrocytes of isolate CM0437 (naturally infected pregnant person, Benin) | 1 | 736
9 | surface of P. falciparum-infected erythrocytes of isolate AK357 (naturally infected pregnant person, Benin) | 2.5 | 337
10 | surface of P. falciparum-infected erythrocytes of isolate WP0168 (naturally infected pregnant person, Benin) | 2 | 473
11 | surface of P. falciparum-infected erythrocytes of isolate WP0140 (naturally infected pregnant person, Benin) | 2.5 | 244
12 | surface of P. falciparum-infected erythrocytes of isolate WP203 (naturally infected pregnant person, Benin) | 1 | 161
13 | surface of P. falciparum-infected erythrocytes of isolate CM0375 (naturally infected pregnant person, Benin) | 5 | 63
14 | surface of P. falciparum-infected erythrocytes of isolate WP0182 (naturally infected pregnant person, Benin) | 2 | 339
15 | surface of P. falciparum-infected erythrocytes of isolate CM0425 (naturally infected pregnant person, Benin) | 1 | 1040
